B1: anti-CR-1 antibody Clone 35 (antibody, V domains shown)
VH: QVQLQQSGPGLVKPSQTLSLTCAISGNSVSSNSAAWNWIRRSPSRGLEWLGRTYYRSKWYNDYAVSVKSRITIKPDTSKNQFSLQLNSVTPEDTAMYYCARGFCSGGRCYSFDYWGPGTLVTVSS
VL: QSVLTQPASVSGSPGQSITISCTGTDSDVGAYGSASWYRHSPGKAPQLIIYDVTNRPSGVSNRFYGSKSGNTASLTISGLQAEDEADYYCQAWDSGIHVVFGGGTQLTVL
notes: VH of phage clone 35 from the human scFv phage display library; human IgG heavy-chain constant region (CH1, CH2 and CH3) of the vector pHIgH5zeo; VL of phage clone 35 from the human scFv phage display library; human IgG light-chain constant region (CL) of the vector pHIgL5hyg; Whole human IgG format (VH-CH1-CH2-CH3 and VL-CL); also called anti-CR-1 Ab Clone 35; anti-CR-1 Clone 35 antibody
B2: anti-CR-1 antibody Clone 35 (antibody, V domains shown)
VH: B1 VH
VL: B1 VL
notes: VH of phage clone 35; human IgG heavy chain constant region CH1-CH2-CH3 from the vector pHIgH5zeo; VL of phage clone 35; human IgG light chain constant region CL from the vector pHIgL5hyg; whole human IgG built from the VH and VL of the scFv phage clone; also called anti-CR-1 Ab Clone 35; anti-CR-1 Ab; source: ExpiCHO-S, transfected, conditioned medium; also purified (HiTrap protein A)
B3: anti-CR-1 antibody Clone 90 (antibody, V domains shown)
VH: QVQLQQSGPGLVKPSQTLSLTCAISGDSVSSNSAAWNWIRQSPSRGLEWLGRTYYRSKWYNDYAVSVKSRITIKPDTSKNQFSLQLYSVTPEDTAMYYCARDSYGMDVWGQGTTATVSS
VL: NFMLTQPPSASGTPGQRVSISCSGSSSNIGSSSVYWCRQLPGTAPKLLIYDVTNRPSGVPDRFSASKSGTSASLAISGLRSEDESDYYCVLYMGSGISVFGGGTKVTVL
notes: VH of phage clone 90; human IgG heavy chain constant region CH1-CH2-CH3 from the vector pHIgH5zeo; VL of phage clone 90; human IgG light chain constant region CL from the vector pHIgL5hyg; whole human IgG built from the VH and VL of the scFv phage clone; also called anti-CR-1 Ab; source: ExpiCHO-S, transfected, conditioned medium
B4: anti-CR-1 antibody Clone 212 (antibody, V domains shown)
VH: QVQLQQSGPGLVKPSQTLSLTCGISGDSVSSNSAAWNWIRQSPSRGLEWLGRTYYRSQWYNDYAVSVNSRITINPDTSKNQFSLQLNSVTPEDTAMYYCARTLRTPLADDYYYSGMDAWGQGTTVTVSS
VL: QSVLIQPASVSGSPGQSITISCTGTSSDVGSYNLASWYQHHPGKAPKLMIYEVNNRPSGVSNRFSGSKSGNTASLTISGLQAEDEADYYCQVWDGSGDPHAVFGGGTQLTVL
notes: VH of phage clone 212; human IgG heavy chain constant region CH1-CH2-CH3 from the vector pHIgH5zeo; VL of phage clone 212; human IgG light chain constant region CL from the vector pHIgL5hyg; whole human IgG built from the VH and VL of the scFv phage clone; also called anti-CR-1 Ab; source: ExpiCHO-S, transfected, conditioned medium
B5: anti-CR-1 antibody Clone 224 (antibody, V domains shown)
VH: QVQLQQSGPGLVKPSQTLSLTCAISGDSVSSNSATWNWIRQSPSRGLEWLGRTYYKSKWYNEYAVSVKSRITINPDTSKNQFSLQLDSVTPEDTAMYYCATDRYYARDYWGRGTLVTVSS
VL: QSVLIQPRSVSGSPGQSVTISCTGTSGDVGYYDHVSWYQQHPGKAPKIMIYDVTQRPSGVPDRFSGSRSGNTASLTISGLQADDESDYYCVLYLGNGIWVFGGGTQLTVL
notes: VH of phage clone 224; human IgG heavy chain constant region CH1-CH2-CH3 from the vector pHIgH5zeo; VL of phage clone 224; human IgG light chain constant region CL from the vector pHIgL5hyg; whole human IgG built from the VH and VL of the scFv phage clone; also called anti-CR-1 Ab; source: ExpiCHO-S, transfected, conditioned medium
B6: anti-CR-1 antibody Clone 226 (antibody, V domains shown)
VH: QVQLQQSGPGLVKPSQTLSLTCAISGDSVSSNSAAWNWIRQSPSRGLEWLGRTYYRSKWYNDYAVSVKSRITINPDTSKNQFSLQLNSVTPEDTAVYYCTPTPTWWPVRWGQGTLVTVSS
VL: QSALTQPRSVSGSPGQSVTISCTGTSGDVGYYDHVSWYQQHPGKAPKLFIYDVTKRPSGVPDRFSASKSGNTASLTISRLQAEDEAEYHCLTWGNSAVFGGGTQLTVL
notes: VH of phage clone 226; human IgG heavy chain constant region CH1-CH2-CH3 from the vector pHIgH5zeo; VL of phage clone 226; human IgG light chain constant region CL from the vector pHIgL5hyg; whole human IgG built from the VH and VL of the scFv phage clone; also called anti-CR-1 Ab; source: ExpiCHO-S, transfected, conditioned medium
B7: anti-CR-1 antibody Clone 242 (antibody, V domains shown)
VH: QVQLVESGGGLVQPGGSLRLSCAASGFTFSNKPMSWVRQAPGKGLEWLSAISGSGVYAYFADSAKGRFTISRDNSKNTPYLQMNSLRAEDTAMYYCARQHITMLPGWFDPWGQGTLVTVSS
VL: QSVLTQPPSASGSPGQSVTISCTGSSSDVGGYNYVSWYQQHPGKAPKLMIYEVSKRPSGVPDRFSGSKSGNTASLTVSGLQAEDEAEYHCATWDNSLSSWVFGRGTQLTVL
notes: VH of phage clone 242; human IgG heavy chain constant region CH1-CH2-CH3 from the vector pHIgH5zeo; VL of phage clone 242; human IgG light chain constant region CL from the vector pHIgL5hyg; whole human IgG built from the VH and VL of the scFv phage clone; also called anti-CR-1 Ab; source: ExpiCHO-S, transfected, conditioned medium
B8: anti-CR-1 antibody Clone 292 (antibody, V domains shown)
VH: QVQLQQSGPGLVKPSQTLPLTCAIYGDSVSSNSAAWNWIRQSPSRGLEWLGRTYYRSKWYNDYAVSVQSRITINPDTSKNQFSLQLNSVTPEDTAMYYCAKGKLSLEVITTRGWDWGQGTLVTVSS
VL: QSVLTQPRSVSGSPGQSVTISCTGTRADVGTYHYVSWYQRHPGKAPKLIIYDVSKRPSGVPDRFSGSKSGNTASLTVSGLQAEDEADYYCQSADSSGTYVIFGGGTQLTVL
notes: VH of phage clone 292; human IgG heavy chain constant region CH1-CH2-CH3 from the vector pHIgH5zeo; VL of phage clone 292; human IgG light chain constant region CL from the vector pHIgL5hyg; whole human IgG built from the VH and VL of the scFv phage clone; also called anti-CR-1 Ab; source: ExpiCHO-S, transfected, conditioned medium
B9: anti-CR-1 antibody Clone 331 (antibody, V domains shown)
VH: QVQLQQSGPGQVKPSQSLSLICAISGDSVSTSSAAWNWIRQSPSRGFEWLGRTFYRSGWFTDYAASVKSRITINPDTSKNQFSLQLNSVTPEDTAMYYCARIRSGYRFDYWGQGILVAVSS
VL: NFMLTQPPSASGTPGQRVTVSCSGSSSNIGSNFVFWYQHLPGKAPKLLIYRNHQRPSGVPDRFSGSKSGTSASLAISGLRSEDESDYYCQVWDDRNVVFGGGTQLTVL
notes: VH of phage clone 331; human IgG heavy chain constant region CH1-CH2-CH3 from the vector pHIgH5zeo; VL of phage clone 331; human IgG light chain constant region CL from the vector pHIgL5hyg; whole human IgG built from the VH and VL of the scFv phage clone; also called anti-CR-1 Ab; source: ExpiCHO-S, transfected, conditioned medium

What follows are binders tested against Cripto-1 (CR-1) in CR-1 overexpressing human cancer cell lines and cancer tissues (Homo sapiens, UniProt P13385) (assay: cell-based or functional assay). Settings: not given.
Sequence of Cripto-1 (CR-1) in CR-1 overexpressing human cancer cell lines and cancer tissues (P13385 31-150): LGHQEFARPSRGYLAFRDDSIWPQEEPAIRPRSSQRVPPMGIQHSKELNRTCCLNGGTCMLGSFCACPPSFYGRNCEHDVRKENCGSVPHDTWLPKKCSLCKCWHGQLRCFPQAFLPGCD

With B1 the “growth inhibition of GEO cells overexpressing CR-1 (MTT, 72 h), antibody 2.1–136 µg/mL (14–900 nM); IC50” value was about 110 nM.

The binders below were run against T1, recombinant soluble human CR-1 protein (Homo sapiens, UniProt P13385) (assay: BLI; Octet RED96; rshCR-1 immobilised on Amine Reactive (AR2G) biosensor; anti-CR-1 Abs in ExpiCHO-S conditioned medium as analyte). Settings: one partner purified.
T1 construct: Cripto-1 (CR-1), human, recombinant soluble form; also called rshCR-1; rhsCR-1
T1 sequence (P13385 31-150): as above

B2 and B3 are within 1.5-fold of each other in koff: 0.0186 s⁻¹ for the first, 0.0196 s⁻¹ for the second.

B4 and B5 are within 1.5-fold of each other in koff: 0.0209 s⁻¹ for the first, 0.0191 s⁻¹ for the second.

B6 and B7 are within 1.5-fold of each other in koff: 0.0194 s⁻¹ for the first, 0.0187 s⁻¹ for the second.

B8 and B9 are within 1.5-fold of each other in koff: 0.0207 s⁻¹ for the first, 0.0181 s⁻¹ for the second.

These binders were tested against T2, recombinant soluble human CR-1 protein (rshCR-1) (Homo sapiens, UniProt P13385) (assay: BLI; Octet; rshCR-1 (2 ng/mL) fixed to amine reactive biosensor; purified antibody 25-200 nM; global fitting, steady state analysis section). Settings: both partners purified.
T2 construct: Cripto-1 (CR-1), human, recombinant soluble form; also called rhsCR-1; recombinant Cripto-1
T2 sequence (P13385 31-150): as above

For B1, the koff was 0.0114 s⁻¹.

— publication PMC7915030, “A Novel Artificially Humanized Anti-Cripto-1 Antibody Suppressing Cancer Cell Growth” (International Journal of Molecular Sciences, 2021)
